Laboratory results: patent US20240240209A1, “SYNTHESIS OF ENANTIOPURE CIS-A-IRONE FROM A RENEWABLE CARBON SOURCE” (Agency for Science, Technology and Research, priority 2021, published 2024)

Test: Cell lysate reaction of pMT enzymes with psi-ionone, irones quantified by HS-SPME-GCMS
Assay type: biochemical
Details: for cis-α-irone content (percentage of cis-α-irone in the irone mixture): cell extracts with psi-ionone; for fold change in cis-α-irone produced: AUC vs non-mutated (=1); for irone production / methyltransferase activity towards psi-ionone (in words): cell lysate reaction, vs parent or control
Description: Using the structure of pMT1 in complex with the cofactor S-adenosyl-L-homocysteine (SAH) and the substrate teleocidin A1 (PDB id: 5GM2) as a template, pMT1 bound to each of the four isomers of α-irone was modelled with the aim of identifying amino acid residues that could be critical to increase cis-α-irone or decrease trans-α-irone production (FIGS. 2d and 2e). […] Site-directed mutagenesis of the 24 residues was carried out with degenerative primers. Subsequently, the mutants of each site were pooled together, and examined if the activity or product-selectivity of the pooled mutants were increased (FIG. 8). This reduced the number of screening reactions to 24, which is manageable when a high-throughput enzymatic assay is not available. […] One residue was chosen and subjected to site-saturation mutagenesis by using degenerative primers containing NNN or NNK. The plasmid library was then transformed into E. coli BL21 (DE3) cells and plated on agar plate containing autoinduction media^19. […] Subsequently, the colonies were collected and resuspended in phosphate saline buffer. Equal number of cells was taken for lysis and cell lysate reactions were carried out in capped SPME-GC vials at 28° C. for 2 days. HS-SPME-GCMS analysis was used to quantify the amount of irones produced by each pooled-colony reaction. […] 24 residues including the control Gly85 (G85m) were subjected to site-saturation mutagenesis, using pMT1 as the template. […] The amount of cis-α-irone produced was estimated based on the area under the gas chromatogram curve (AUC). The fold change is calculated by comparing the AUC of cis-α-irone produced by the mutant enzyme to that of non-mutated.
For each pMT mutant, it was transformed into BL21 and grown in autoinduction media with 5 mM lactose at 20° C. for 36 hrs. Then, cells were pelleted and concentrated 10 times by adding 1 ml of PBS. The OD600 was measured and 40*600 OD*ul cells were transferred into a new 1.5 ml tube. The cells were spun down and resuspended in 600 μl of lysis buffer (1×DNase buffer, 150 mM NaCl, 0.5% glycerol, 1 mg/ml lysozyme and 20U of DNasel). The cells were incubated for 2 hrs at 20° C. with shaking at 300 rpm. Following that, 2 cycles of freeze-thaw was done to completely lyse the cells. At the end of the 2nd thawing, the cell lysate was used to setup a 1 ml reaction in 2 ml GC vials. The reaction consisted of 50 mM Tris (pH7), 10 mM MgCl2, 60 mM NaCl, 0.2 mM SAM and 10 mg/L of psi-ionone and caryophyllene each. To this, 500 μl of cell lysate was added while the remaining 100 μl was used for SDS-PAGE to analyze the total and soluble protein expression. The reaction was incubated for 2 days at 28° C., 300 rpm prior to extraction of cis-α-irone with 500 μl hexane. From this, 20 μl of organic layer was taken into 180 μl hexane for GCMS analysis.
For the mutant pMT activity screening, the reactants and products were analyzed by head space solid phase microextraction (HS-SPME) coupled with an Agilent 5977B gas chromatography (GC) system equipped with Agilent DB-5 ms column (30 m×250 μm×0.25 μm) and mass spectrometry (MS) with high efficiency source. The reaction mixtures were carried out in SPME vials which were incubated at 60° C. for 20 mins to allow the release of volatile compounds. The absorbent fiber (50/30 μm divinylbenzol/carboxen/polydimethyl-SPME fiber, SUPELCO) was then exposed to the headspace of the vial for 20 mins. The extracted analytes were desorbed at the GC inlet at 250° C. for 1 min and injected into GC with a split ratio of 200:1. The GC oven temperature increased from 50° C. to 140° C. at a rate of 10° C./min and held at 140° C. for 10 min. Subsequently, the temperature was increased to 320° C. at a rate of 60° C./min and held at 320° C. for 2 mins.

B1: pMT2: pMT1 with Y200F (protein)
chain: MPQEARTPQQQVTADEVGDWYDKFGEVYHLTLGESVHCGLWFPPDAPVPQDMELVTMSSQAQDRYTDYLIETLDPKAGQHLLDIGCGTGRTALKAARQRGIAVTGVAVSKEQIAAANRLAAGHGLTERLTFEVADAMRLPYEDESFDCAWAIESLCHMDRAKALGEAWRVLKPGGDLLVLESVVTEELTEPETALFETLFAANVPPRLGEFFDIVSGAGFHTLSLKDLSANLAMTMNVFALGVYSRRAEFTERFGAEFVDGLLAGLGSAQETLIRKTRFFMATLRKPAV
modifications: Modified from pMT1
notes: pMT1 with Y200F
  cis-α-irone content (percentage of cis-α-irone in the irone mixture): ~68%
pMT1_Y200 mutants
  fold change in cis-α-irone produced: 12.2
pMT2_C156 mutants
  fold change in cis-α-irone produced: 1.0
pMT2_F196 mutants
  fold change in cis-α-irone produced: 1.0
pMT2_L180 mutants
  fold change in cis-α-irone produced: 1.0
pMT2_L232 mutants
  fold change in cis-α-irone produced: 1.0
pMT2_M236 mutants
  fold change in cis-α-irone produced: 1.0
pMT2_S182 mutants
  fold change in cis-α-irone produced: 1.0
pMT2_T277 mutants
  fold change in cis-α-irone produced: 1.0
pMT2_V36 mutants
  fold change in cis-α-irone produced: 1.0
Vs pMT1, TTN = cis-α-irone produced / soluble pMT enzyme
  improvement of total turnover number (TTN): > 12 fold

B2: pMT1_M236F: pMT1 with M236F (protein)
chain: MPQEARTPQQQVTADEVGDWYDKFGEVYHLTLGESVHCGLWFPPDAPVPQDMELVTMSSQAQDRYTDYLIETLDPKAGQHLLDIGCGTGRTALKAARQRGIAVTGVAVSKEQIAAANRLAAGHGLTERLTFEVADAMRLPYEDESFDCAWAIESLCHMDRAKALGEAWRVLKPGGDLLVLESVVTEELTEPETALFETLYAANVPPRLGEFFDIVSGAGFHTLSLKDLSANLAMTFNVFALGVYSRRAEFTERFGAEFVDGLLAGLGSAQETLIRKTRFFMATLRKPAV
pMT1_M236 mutants
  fold change in cis-α-irone produced: 0.0

B3: pMT5: pMT1 with Y200F S182E L273V L180A (protein)
chain: MPQEARTPQQQVTADEVGDWYDKFGEVYHLTLGESVHCGLWFPPDAPVPQDMELVTMSSQAQDRYTDYLIETLDPKAGQHLLDIGCGTGRTALKAARQRGIAVTGVAVSKEQIAAANRLAAGHGLTERLTFEVADAMRLPYEDESFDCAWAIESLCHMDRAKALGEAWRVLKPGGDLLVAEEVVTEELTEPETALFETLFAANVPPRLGEFFDIVSGAGFHTLSLKDLSANLAMTMNVFALGVYSRRAEFTERFGAEFVDGLLAGLGSAQETVIRKTRFFMATLRKPAV
modifications: Modified from pMT1
notes: pMT1 with Y200F S182E L273V L180A
  cis-α-irone content (percentage of cis-α-irone in the irone mixture): ~90%
pMT4_L180 mutants
  fold change in cis-α-irone produced: 1.8
pMT5_A102 mutants
  fold change in cis-α-irone produced: 1.0
pMT5_A202 mutants
  fold change in cis-α-irone produced: 1.0
pMT5_T104 mutants
  fold change in cis-α-irone produced: 1

B4: pMT1_R160F: pMT1 with R160F (protein)
chain: MPQEARTPQQQVTADEVGDWYDKFGEVYHLTLGESVHCGLWFPPDAPVPQDMELVTMSSQAQDRYTDYLIETLDPKAGQHLLDIGCGTGRTALKAARQRGIAVTGVAVSKEQIAAANRLAAGHGLTERLTFEVADAMRLPYEDESFDCAWAIESLCHMDFAKALGEAWRVLKPGGDLLVLESVVTEELTEPETALFETLYAANVPPRLGEFFDIVSGAGFHTLSLKDLSANLAMTMNVFALGVYSRRAEFTERFGAEFVDGLLAGLGSAQETLIRKTRFFMATLRKPAV
pMT1_R160 mutants
  fold change in cis-α-irone produced: 0.0

B5: pMT8: pMT1 with Y200F S182E L273V L180A A202L C156P (protein)
chain: MPQEARTPQQQVTADEVGDWYDKFGEVYHLTLGESVHCGLWFPPDAPVPQDMELVTMSSQAQDRYTDYLIETLDPKAGQHLLDIGCGTGRTALKAARQRGIAVTGVAVSKEQIAAANRLAAGHGLTERLTFEVADAMRLPYEDESFDCAWAIESLPHMDRAKALGEAWRVLKPGGDLLVAEEVVTEELTEPETALFETLFALNVPPRLGEFFDIVSGAGFHTLSLKDLSANLAMTMNVFALGVYSRRAEFTERFGAEFVDGLLAGLGSAQETVIRKTRFFMATLRKPAV
modifications: Modified from pMT1
notes: pMT1 with Y200F S182E L273V L180A A202L C156P
  irone production / methyltransferase activity towards psi-ionone (in words): further improved the TTN of the enzyme
pMT6_C156 mutants
  fold change in cis-α-irone produced: 1.1

B6: pMT9: pMT1 with Y200F S182E L273V L180A A202L Y65F C156A (protein)
chain: MPQEARTPQQQVTADEVGDWYDKFGEVYHLTLGESVHCGLWFPPDAPVPQDMELVTMSSQAQDRYTDYLIETLDPKAGQHLLDIGCGTGRTALKAARQRGIAVTGVAVSKEQIAAANRLAAGHGLTERLTFEVADAMRLPYEDESFDCAWAIESLAHMDRAKALGEAWRVLKPGGDLLVAEEVVTEELTEPETALFETLFALNVPPRLGEFFDIVSGAGFHTLSLKDLSANLAMTMNVFALGVYSRRAEFTERFGAEFVDGLLAGLGSAQETVIRKTRFFMATLRKPAV
modifications: Modified from pMT1
notes: pMT1 with Y200F S182E L273V L180A A202L Y65F C156A
  irone production / methyltransferase activity towards psi-ionone (in words): increased both α- and β-irone production

B7: pMT1_E153F: pMT1 with E153F (protein)
chain: MPQEARTPQQQVTADEVGDWYDKFGEVYHLTLGESVHCGLWFPPDAPVPQDMELVTMSSQAQDRYTDYLIETLDPKAGQHLLDIGCGTGRTALKAARQRGIAVTGVAVSKEQIAAANRLAAGHGLTERLTFEVADAMRLPYEDESFDCAWAIFSLCHMDRAKALGEAWRVLKPGGDLLVLESVVTEELTEPETALFETLYAANVPPRLGEFFDIVSGAGFHTLSLKDLSANLAMTMNVFALGVYSRRAEFTERFGAEFVDGLLAGLGSAQETLIRKTRFFMATLRKPAV
pMT1_E153 mutants
  fold change in cis-α-irone produced: 0.0

B8: pMT1_Y200L: pMT1 with Y200L (protein)
chain: MPQEARTPQQQVTADEVGDWYDKFGEVYHLTLGESVHCGLWFPPDAPVPQDMELVTMSSQAQDRYTDYLIETLDPKAGQHLLDIGCGTGRTALKAARQRGIAVTGVAVSKEQIAAANRLAAGHGLTERLTFEVADAMRLPYEDESFDCAWAIESLCHMDRAKALGEAWRVLKPGGDLLVLESVVTEELTEPETALFETLLAANVPPRLGEFFDIVSGAGFHTLSLKDLSANLAMTMNVFALGVYSRRAEFTERFGAEFVDGLLAGLGSAQETLIRKTRFFMATLRKPAV
  irone production / methyltransferase activity towards psi-ionone (in words): improved trans-α-irone production
pMT1_Y200 mutants
  fold change in cis-α-irone produced: 0.4

B9: pMT6: pMT1 with Y200F S182E L273V L180A A202L (protein)
chain: MPQEARTPQQQVTADEVGDWYDKFGEVYHLTLGESVHCGLWFPPDAPVPQDMELVTMSSQAQDRYTDYLIETLDPKAGQHLLDIGCGTGRTALKAARQRGIAVTGVAVSKEQIAAANRLAAGHGLTERLTFEVADAMRLPYEDESFDCAWAIESLCHMDRAKALGEAWRVLKPGGDLLVAEEVVTEELTEPETALFETLFALNVPPRLGEFFDIVSGAGFHTLSLKDLSANLAMTMNVFALGVYSRRAEFTERFGAEFVDGLLAGLGSAQETVIRKTRFFMATLRKPAV
modifications: Modified from pMT1
notes: pMT1 with Y200F S182E L273V L180A A202L
  irone production / methyltransferase activity towards psi-ionone (in words): significantly increased the cis-α-irone concentration
Cell lysate with psi-ionone
  β-irone share of the irone mixture: ~30%
pMT5_A202 mutants
  fold change in cis-α-irone produced: 4.3
pMT6_C156 mutants
  fold change in cis-α-irone produced: 1.0
pMT6_Y65 mutants
  fold change in cis-α-irone produced: 1.0
